Data reported in patent publication US20220048993A1.

Target: truncated human FcRH5 (deletion of amino acids 1-744) with N-terminal gD tag (human) (UniProt Q96RD9)
Experiment: cell-based or functional assay

Chain of truncated human FcRH5 (deletion of amino acids 1-744) with N-terminal gD tag (human) (Q96RD9 745-977, stated change not applied): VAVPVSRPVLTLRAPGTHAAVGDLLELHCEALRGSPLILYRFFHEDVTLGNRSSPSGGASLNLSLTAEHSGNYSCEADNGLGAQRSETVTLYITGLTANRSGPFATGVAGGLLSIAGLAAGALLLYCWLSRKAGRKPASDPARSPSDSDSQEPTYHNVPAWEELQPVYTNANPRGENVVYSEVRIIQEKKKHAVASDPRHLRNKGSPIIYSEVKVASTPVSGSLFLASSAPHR

Substance: anti-gD/UCHT1.v9 TDB (bispecific antibody)
- target cell killing, EC50: 0.19 nM
